Data published in PMC6548965, “Aptameric Probe Specifically Binding Protein Heterodimer Rather Than Monomers”.

Target: IAP-PLAP alkaline phosphatase heterodimer (Homo sapiens (Human), UniProt P09923;P05187 20-503;23-506, GPI-anchored, glycosylated)
Test: flow; LoVo cells, binding buffer, 4 C
Conditions: copies: 1;1; label: FITC or AF647

IAP-PLAP alkaline phosphatase heterodimer, sequence (P09923 20-503, chain 1 of 2): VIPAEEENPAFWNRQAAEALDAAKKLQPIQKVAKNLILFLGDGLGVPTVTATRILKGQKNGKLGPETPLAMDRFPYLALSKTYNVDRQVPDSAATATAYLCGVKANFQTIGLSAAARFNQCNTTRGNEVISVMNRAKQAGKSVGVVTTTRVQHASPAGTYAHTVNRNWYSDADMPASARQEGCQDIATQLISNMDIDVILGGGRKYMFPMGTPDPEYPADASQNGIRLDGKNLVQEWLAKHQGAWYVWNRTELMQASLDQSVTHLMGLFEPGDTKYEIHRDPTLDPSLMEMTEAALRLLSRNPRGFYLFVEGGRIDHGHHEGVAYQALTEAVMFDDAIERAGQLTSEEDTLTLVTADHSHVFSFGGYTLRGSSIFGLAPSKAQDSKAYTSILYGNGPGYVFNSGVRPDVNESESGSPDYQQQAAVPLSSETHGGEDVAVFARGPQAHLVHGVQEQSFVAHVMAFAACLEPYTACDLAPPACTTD
IAP-PLAP alkaline phosphatase heterodimer, sequence (P05187 23-506, chain 2 of 2): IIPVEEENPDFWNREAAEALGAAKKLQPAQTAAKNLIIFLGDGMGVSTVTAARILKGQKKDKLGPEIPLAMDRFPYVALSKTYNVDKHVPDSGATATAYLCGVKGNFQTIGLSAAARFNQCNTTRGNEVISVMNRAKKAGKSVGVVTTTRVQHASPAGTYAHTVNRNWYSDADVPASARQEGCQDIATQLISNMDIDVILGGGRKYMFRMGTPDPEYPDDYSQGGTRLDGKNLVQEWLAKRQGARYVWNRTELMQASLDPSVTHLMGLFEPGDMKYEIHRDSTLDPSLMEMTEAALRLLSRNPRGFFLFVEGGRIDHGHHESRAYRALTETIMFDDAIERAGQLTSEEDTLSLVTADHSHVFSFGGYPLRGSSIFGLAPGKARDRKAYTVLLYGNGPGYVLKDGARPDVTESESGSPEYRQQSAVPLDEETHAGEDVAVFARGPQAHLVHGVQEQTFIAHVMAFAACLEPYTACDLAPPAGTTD

Binder | Kd
TAAAAAATAGGGGTCGGTGTGGGTGGTTATGATTGGCTTTTTTA (ssDNA) [BG4] | 11.5 ± 2.3 nM
TAGGGGTCGGTGTGGGTGGTTATGATTGGC (ssDNA) [BG2c] | 9.3 ± 1.6 nM
